Assay results from patent publication US20140011213A1.

Target: BAP-CD59a reporter, biotinylated in vitro by BirA (on CHO-S cells) (mouse)
Assay: FACS; CHO-S transfected with BAP-CD59a, incubated with BirA and stained with F-SA (non-transfected stained control MFI-69)

BAP-CD59a reporter, biotinylated in vitro by BirA (on CHO-S cells) (mouse), sequence (chain, as listed by the source): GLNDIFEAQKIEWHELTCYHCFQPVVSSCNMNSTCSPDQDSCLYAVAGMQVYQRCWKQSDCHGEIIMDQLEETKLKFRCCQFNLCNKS

- MFI: 24400
Substance: R-Phycoerythrin-conjugated Streptavidin (from UniProt P22629 37-163)
